Series [1] has as its target T1, TNF-alpha (UniProt P01375 77-233). The series can be described thus: graphene FET (Hill-Langmuir fit); 1000 Da PEG, 1x PBS; 1x PBS, artificial sweat (10x diluted or undiluted) or undiluted lavage fluid; aptamer immobilized on graphene; pH and temperature not stated. The note with it: protein: commercial; chain copies: 3; G-quadruplex, two G-tetrads.
In series [2] the target is T1, TNF-alpha. Nature of the series: graphene FET (Hill-Langmuir fit); no PEG, 1x PBS; 1x PBS, artificial sweat (10x diluted or undiluted) or undiluted lavage fluid; aptamer immobilized on graphene; pH and temperature not stated. The conditions noted are these: protein: commercial; chain copies: 3; G-quadruplex, two G-tetrads.
The target in series [3] is T1, TNF-alpha. Nature of the series: graphene FET (Hill-Langmuir fit); 2000 Da PEG, 1x PBS; 1x PBS, artificial sweat (10x diluted or undiluted) or undiluted lavage fluid; aptamer immobilized on graphene; pH and temperature not stated. The note with it: protein: commercial; chain copies: 3; G-quadruplex, two G-tetrads.
In series [4] the target is T2, IL-6 (UniProt P05231 30-212). The series can be described thus: graphene FET (Hill-Langmuir fit); 2000 Da PEG, undiluted lavage fluid; 1x PBS, artificial sweat (10x diluted or undiluted) or undiluted lavage fluid; aptamer immobilized on graphene; pH and temperature not stated. The conditions noted are these: protein: commercial.
T2 sequence (P05231 30-212): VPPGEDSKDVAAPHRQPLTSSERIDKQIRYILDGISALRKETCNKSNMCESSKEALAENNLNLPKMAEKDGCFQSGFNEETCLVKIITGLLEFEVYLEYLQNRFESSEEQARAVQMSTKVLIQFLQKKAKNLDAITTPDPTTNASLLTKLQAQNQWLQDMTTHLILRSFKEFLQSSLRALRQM
For series [5], the target named is T2, IL-6. The series can be described thus: graphene FET (Hill-Langmuir fit); 1000 Da PEG, undiluted lavage fluid; 1x PBS, artificial sweat (10x diluted or undiluted) or undiluted lavage fluid; aptamer immobilized on graphene; pH and temperature not stated. The conditions noted are these: protein: commercial.
For series [6], the target named is T2, IL-6. Nature of the series: graphene FET (Hill-Langmuir fit); 1000 Da PEG, PBS; 1x PBS, artificial sweat (10x diluted or undiluted) or undiluted lavage fluid; aptamer immobilized on graphene; pH and temperature not stated. The conditions noted are these: protein: commercial.
Series [7] concerns the target T2, IL-6. The series can be described thus: graphene FET (Hill-Langmuir fit); 2000 Da PEG, PBS; 1x PBS, artificial sweat (10x diluted or undiluted) or undiluted lavage fluid; aptamer immobilized on graphene; pH and temperature not stated. The conditions noted are these: protein: commercial.

T1 sequence (P01375 77-233): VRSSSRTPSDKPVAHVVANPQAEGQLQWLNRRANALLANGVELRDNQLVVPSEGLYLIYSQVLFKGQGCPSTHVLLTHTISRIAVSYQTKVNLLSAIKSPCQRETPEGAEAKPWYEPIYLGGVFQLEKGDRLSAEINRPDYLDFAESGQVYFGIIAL

B1: TNF-alpha aptamer (ssDNA)
DNA: TGGTGGATGGCGCAGTCGGCGACAA
modifications: 5'-NH2
Regarding B1, the Kd in series [1] was 1.52 ± 0.35 nM; in series [2], 2.82 ± 0.19 nM; in series [3], 1.21 ± 0.44 nM.

B2: IL-6 aptamer (ssDNA)
DNA: GGTGGCAGGAGGACTATTTATTTGCTTTTCT
modifications: 5'-NH2
For the molecule B2, the Kd in series [4] was determined as 0.194 ± 0.023 nM; in series [5], 0.57 ± 0.096 nM; in series [6], 0.084 ± 0.023 nM; in series [7], 0.188 ± 0.052 nM.

What is called Kd is the concentration at which binding is half-saturated.

The values above are taken from PMC11939848, “Aptamer-Based Graphene Field-Effect Transistor Biosensor for Cytokine Detection in Undiluted Physiological Media for Cervical Carcinoma Diagnosis”.
